Measurements as given in paper PMC5342242, “Altering the N-terminal arms of the polymerase manager protein UmuD modulates protein interactions” (PLoS ONE, 2017).

Experiments:
[1] = molecular target: T1, DNA polymerase III α subunit truncation α917–1160 (E. coli, UniProt P10443 917-1160); experiment: other fluorescence titration; intrinsic tryptophan fluorescence of α; UmuD titrated into a solution of α; equilibrium Kd; details: both partners purified
T1 construct: α polymerase subunit of DNA polymerase III, E. coli, residues 917–1160; also called C-terminal fragment of α; source: described previously [21]

[2] = molecular target: T2, DNA polymerase III α subunit, full-length (E. coli, UniProt P10443 1-1160, in the FRET assay only: labeled with Alexa Fluor 647 C2-maleimide); experiment: as above; details: both partners purified
T2 construct: α polymerase subunit of DNA polymerase III, E. coli, full-length; Unlabelled in the tryptophan fluorescence titration; also called pol III α; full-length α; source: purified; as previously described [21]

[3] = molecular target: T3, DNA polymerase III α subunit truncation α1–280 (E. coli, UniProt P10443 1-280); experiment: as above; details: both partners purified
T3 construct: α polymerase subunit of DNA polymerase III, E. coli, residues 1–280; also called N-terminal domain of α; PHP domain; source: described previously [21]

[4] = molecular target: the molecule itself; experiment: cross-linking; 10 mM bis(maleimido)hexane (BMH), 40 μM protein, 10 min at room temperature; cross-linked dimers seen by Coomassie-stained SDS-PAGE

T2 sequence (P10443 whole entry): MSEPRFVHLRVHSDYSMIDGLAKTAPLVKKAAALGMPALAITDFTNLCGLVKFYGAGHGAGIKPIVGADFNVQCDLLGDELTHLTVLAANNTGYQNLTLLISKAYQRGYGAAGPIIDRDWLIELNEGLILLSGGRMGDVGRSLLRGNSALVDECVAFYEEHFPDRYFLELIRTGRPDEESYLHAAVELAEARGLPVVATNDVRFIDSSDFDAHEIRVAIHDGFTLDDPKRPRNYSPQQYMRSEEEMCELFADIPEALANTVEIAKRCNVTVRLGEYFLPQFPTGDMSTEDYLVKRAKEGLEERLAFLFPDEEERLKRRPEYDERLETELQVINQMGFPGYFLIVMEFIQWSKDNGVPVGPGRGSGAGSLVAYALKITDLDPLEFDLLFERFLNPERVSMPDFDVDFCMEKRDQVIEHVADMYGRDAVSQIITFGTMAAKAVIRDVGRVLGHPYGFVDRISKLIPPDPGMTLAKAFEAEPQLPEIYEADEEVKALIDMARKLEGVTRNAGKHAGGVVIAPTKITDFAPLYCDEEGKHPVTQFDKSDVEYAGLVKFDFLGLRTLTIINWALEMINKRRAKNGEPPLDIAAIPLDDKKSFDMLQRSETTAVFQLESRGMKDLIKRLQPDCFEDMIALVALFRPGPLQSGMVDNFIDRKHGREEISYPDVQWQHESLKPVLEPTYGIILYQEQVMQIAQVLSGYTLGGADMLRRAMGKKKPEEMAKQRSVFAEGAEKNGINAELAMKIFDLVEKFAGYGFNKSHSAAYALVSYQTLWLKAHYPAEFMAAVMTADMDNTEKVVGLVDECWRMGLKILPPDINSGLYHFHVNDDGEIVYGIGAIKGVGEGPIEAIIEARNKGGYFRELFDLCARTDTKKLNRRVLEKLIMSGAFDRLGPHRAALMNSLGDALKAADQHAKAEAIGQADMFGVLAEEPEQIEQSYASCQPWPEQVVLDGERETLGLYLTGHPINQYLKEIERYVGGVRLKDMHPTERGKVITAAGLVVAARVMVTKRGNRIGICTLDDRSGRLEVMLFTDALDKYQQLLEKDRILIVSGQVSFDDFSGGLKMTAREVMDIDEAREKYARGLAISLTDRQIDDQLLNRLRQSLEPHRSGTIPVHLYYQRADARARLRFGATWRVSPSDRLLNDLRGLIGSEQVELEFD
T1 sequence (P10443 917-1160): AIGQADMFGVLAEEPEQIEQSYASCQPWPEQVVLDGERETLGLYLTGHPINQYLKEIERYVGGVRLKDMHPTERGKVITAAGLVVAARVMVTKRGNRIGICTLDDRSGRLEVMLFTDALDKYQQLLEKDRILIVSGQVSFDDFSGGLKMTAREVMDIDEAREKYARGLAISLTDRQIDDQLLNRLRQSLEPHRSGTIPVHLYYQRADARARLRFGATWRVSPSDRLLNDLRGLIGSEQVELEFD
T3 sequence (P10443 1-280): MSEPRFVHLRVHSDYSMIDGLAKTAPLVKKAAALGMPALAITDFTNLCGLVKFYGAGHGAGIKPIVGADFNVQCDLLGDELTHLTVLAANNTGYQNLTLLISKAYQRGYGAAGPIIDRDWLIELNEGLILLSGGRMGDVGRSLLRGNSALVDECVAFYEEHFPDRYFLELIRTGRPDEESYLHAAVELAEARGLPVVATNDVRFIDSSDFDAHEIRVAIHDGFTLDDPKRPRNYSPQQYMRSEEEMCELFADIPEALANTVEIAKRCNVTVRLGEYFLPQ

Binder | Kd [1] | Kd [2] | Kd [3] | percent cross-linked dimers [4]
UmuD 8 S60A (domain or fragment, E. coli, UniProt P0AG11 8-139, looked up, UmuD, E. coli, lacking the N-terminal 7 residues (Δ1–7) of the 139-residue full-length protein; non-cleavable active-site variant S60A; Plasmid pSG5 derivative; also called UmuD Δ1–7 S60A; source: constructed in pSG5, expressed and purified as previously described [33, 34]) DLREIVTFPLFSDLVQCGFPSPAADYVEQRIDLNQLLIQHPSATYFVKASGDAMIDGGISDGDLLIVDSAITASHGDIVIAAVDGEFTVKKLQLRPTVQLIPMNSAYSPITISSEDTLDVFGVVIHVVKAMR | 0.2 ± 0.4 µM | 8.1 ± 0.9 µM | 3.5 ± 0.8 µM | 32%
UmuD 18 S60A (domain or fragment, E. coli, UniProt P0AG11 18-139, looked up, UmuD, E. coli, lacking the N-terminal 17 residues (Δ1–17) of the 139-residue full-length protein; non-cleavable active-site variant S60A; Plasmid pSG5 derivative; also called UmuD Δ1–17 S60A; source: constructed in pSG5, expressed and purified as previously described [33, 34]) FSDLVQCGFPSPAADYVEQRIDLNQLLIQHPSATYFVKASGDAMIDGGISDGDLLIVDSAITASHGDIVIAAVDGEFTVKKLQLRPTVQLIPMNSAYSPITISSEDTLDVFGVVIHVVKAMR | 3.6 ± 0.4 µM | 12.2 ± 0.2 µM | 5.9 ± 0.9 µM | 39%
UmuD 3A (natural protein, E. coli, UniProt P0AG11 1-139, looked up, UmuD, E. coli, full-length arms, three alanine mutations T14A L17A F18A; also called UmuD T14A L17A F18A; source: purified; not further stated) MLFIKPADLREIVAFPAASDLVQCGFPSPAADYVEQRIDLNQLLIQHPSATYFVKASGDSMIDGGISDGDLLIVDSAITASHGDIVIAAVDGEFTVKKLQLRPTVQLIPMNSAYSPITISSEDTLDVFGVVIHVVKAMR |  |  |  | 41%
wild-type UmuD (natural protein, E. coli, UniProt P0AG11 1-139, looked up, UmuD, E. coli, full-length, 139 residues; also called WT UmuD; full-length UmuD; source: purified; expression from pSG5 as previously described [33, 34]) MLFIKPADLREIVTFPLFSDLVQCGFPSPAADYVEQRIDLNQLLIQHPSATYFVKASGDSMIDGGISDGDLLIVDSAITASHGDIVIAAVDGEFTVKKLQLRPTVQLIPMNSAYSPITISSEDTLDVFGVVIHVVKAMR |  |  |  | 25%
UmuD S60A C24A A7C (natural protein, E. coli, UniProt P0AG11 1-139, looked up, UmuD, E. coli, with the full-length arm; single cysteine moved from position 24 to position 7; S60A; also called UmuD A7C C24A S60A; source: purified; not further stated) MLFIKPCDLREIVTFPLFSDLVQAGFPSPAADYVEQRIDLNQLLIQHPSATYFVKASGDAMIDGGISDGDLLIVDSAITASHGDIVIAAVDGEFTVKKLQLRPTVQLIPMNSAYSPITISSEDTLDVFGVVIHVVKAMR |  |  |  | 71%
UmuD S60A (natural protein, E. coli, UniProt P0AG11 1-139, looked up, UmuD, E. coli, full-length 139 residues, non-cleavable active-site variant S60A; also called full-length UmuD-S60A; active site variant UmuD S60A; source: purified; expression from pSG5 as previously described [33, 34]) MLFIKPADLREIVTFPLFSDLVQCGFPSPAADYVEQRIDLNQLLIQHPSATYFVKASGDAMIDGGISDGDLLIVDSAITASHGDIVIAAVDGEFTVKKLQLRPTVQLIPMNSAYSPITISSEDTLDVFGVVIHVVKAMR |  |  |  | 31%
